Reference: patent publication EP2586797A2

B1: Composite human antibody variant VH5/VK3 (antibody, human IgG1, V domains shown)
VH: QVQLVQSGAEVKKPGASVKVSCTASGFNIKDTYIHWVRQARGQRLEWIGRFDPVNVNTRYDSRFRGRVTITSDASTSTAYMELSSLRSEDTAVYYCSRSYYNGRRRFTYWGQGTLVTVSS
VL: DIVMTQSPSSLTASVGDRVTITCKASQSLLSSGNQKNYLTWYQQKPGQPPKLLIYWASIRESGVPDRFSGSGSGTDFTLTISSLQAEDVAVYYCQNDYNYPFTFGQGTKLEIK
B2: Composite human antibody variant VH1/VK1 (antibody, V domains shown)
VH: EVQLVQSGAELKKPGASVKVSCTASGFNIKDTYIHWVRQAPGQRLEWIGRFDPVNVNTRYDSRFRGRATITSDASTNTAYMELSSLRSEDTAVYYCSRSYYNGRRRFTYWGQGTLVTVSS
VL: DIVMTQSPDSLTVSLGERATINCKASQSLLSSGNQKNYLTWYQQKPGQPPKLLIYWASIRESGVPDRFTGSGSGTFFTLTISSLQAEDVAVYYCQNDYNYPFTFGQGTKLEIK
B3: Composite human antibody variant VH2/VK3 (antibody, human IgG1, V domains shown)
VH: EVQLVQSGAEVKKPGASVKVSCTASGFNIKDTYIHWVRQARGQRLEWIGRFDPVNVNTRYDSRFRGRATITSDASTNTAYMELSSLRSEDTAVYYCSRSYYNGRRRFTYWGQGTLVTVSS
VL: DIVMTQSPSSLTASVGDRVTITCKASQSLLSSGNQKNYLTWYQQKPGQPPKLLIYWASIRESGVPDRFSGSGSGTDFTLTISSLQAEDVAVYYCQNDYNYPFTFGQGTKLEIK
B4: Composite human antibody variant VH4/VK3 (antibody, human IgG1, V domains shown)
VH: QVQLVQSGAEVKKPGASVKVSCTASGFNIKDTYIHWVRQARGQRLEWIGRFDPVNVNTRYDSRFRGRVTITSDASTNTAYMELSSLRSEDTAVYYCSRSYYNGRRRFTYWGQGTLVTVSS
VL: DIVMTQSPSSLTASVGDRVTITCKASQSLLSSGNQKNYLTWYQQKPGQPPKLLIYWASIRESGVPDRFSGSGSGTDFTLTISSLQAEDVAVYYCQNDYNYPFTFGQGTKLEIK
B5: Composite human antibody variant VH3/VK3 (antibody, human IgG1, V domains shown)
VH: QVQLVQSGAEVKKPGASVKVSCTASGFNIKDTYIHWVRQARGQRLEWIGRFDPVNVNTRYDSRFRGRATITSDASTNTAYMELSSLRSEDTAVYYCSRSYYNGRRRFTYWGQGTLVTVSS
VL: DIVMTQSPSSLTASVGDRVTITCKASQSLLSSGNQKNYLTWYQQKPGQPPKLLIYWASIRESGVPDRFSGSGSGTDFTLTISSLQAEDVAVYYCQNDYNYPFTFGQGTKLEIK
B6: Composite human antibody variant VH1/VK3 (antibody, human IgG1, V domains shown)
VH: EVQLVQSGAELKKPGASVKVSCTASGFNIKDTYIHWVRQAPGQRLEWIGRFDPVNVNTRYDSRFRGRATITSDASTNTAYMELSSLRSEDTAVYYCSRSYYNGRRRFTYWGQGTLVTVSS
VL: DIVMTQSPSSLTASVGDRVTITCKASQSLLSSGNQKNYLTWYQQKPGQPPKLLIYWASIRESGVPDRFSGSGSGTDFTLTISSLQAEDVAVYYCQNDYNYPFTFGQGTKLEIK
B7: Composite human antibody variant VH2/VK2 (antibody, human IgG1, V domains shown)
VH: EVQLVQSGAEVKKPGASVKVSCTASGFNIKDTYIHWVRQARGQRLEWIGRFDPVNVNTRYDSRFRGRATITSDASTNTAYMELSSLRSEDTAVYYCSRSYYNGRRRFTYWGQGTLVTVSS
VL: DIVMTQSPSSLTASVGDRVTITCKASQSLLSSGNQKNYLTWYQQKPGQPPKLLIYWASIRESGVPDRFTGSGSGTFFTLTISSLQAEDVAVYYCQNDYNYPFTFGQGTKLEIK

Target: Abeta42 beta amyloid peptide (UniProt P05067)
Assay: competition ELISA, NS0 supernatant titrated against 0.25 ug/ml biotinylated mouse 6E10 (mouse MDT-2007) on coated beta amyloid; IC50 normalised to mouse 6E10 (=1; <1 improved)

Chain of Abeta42 beta amyloid peptide (P05067 672-713 limits assumed): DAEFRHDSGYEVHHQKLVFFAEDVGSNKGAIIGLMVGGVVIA

In order of rising fold difference in IC50 relative to mouse 6E10:
1. B2  0.78 fold
2. B3  0.96 fold
3. B1  1.02 fold
4. B7  1.1 fold
5. B4  1.36 fold
6. B5  1.57 fold
7. B6  1.93 fold
